# Experimental data from the RNAGym collection of RNA variant scans (doi:10.7554/elife.90254).
# B1: LINE1-mini (parent)
# chain: GGCAGAGCUCAACACAGCGUGGCAAAGUGGCUGUGGCUAGACUGCC
# Variants of: B1
# Assay: self-cleavage, relative activity (ratio to wild type); higher = more cleavage; in vitro, sequencing; the parent is a self-cleaving ribozyme
row,Variant,self-cleavage
1,UGCAGAGCUCAACACAGCGUGGCAAAGUGGCUGUGGCUCGACUGCC [G1U A39C],0.09
2,GGCAGAGCUCAACACCACGUGGCAAAGUGGCUGUGGCUAGACUGCC [A16C G17A],0.07
3,GGUAGAGCUCAACACAGCGUGGCAAAGUGGCUGUGGCUAGACUCCC [C3U G44C],0.35
4,GGCAGAGCUCAACACAGCGUGGCAAAGUGGCUGUGGCUAGACUUAC [G44U C45A],0.11
5,GGCAGAGGUCAACACAGCGUGGCAAAGUGGCUGUGGAUAGACUGCC [C8G C37A],0.04
6,GGCAGAGCUCAACACAGCGUGCCAAAGUCGCUGUGGCUAGACUGCC [G22C G29C],0.27
7,GGCAGAGCUCAACACAGCGUGGCAAUGUGGCUGUGCCUAGACUGCC [A26U G36C],0.13
8,GGCAGAGCUCAACACAGCGUCGCUAAGUGGCUGUGGCUAGACUGCC [G21C A24U],0.63
9,GGCAGAGCUCAACAUAGCGUGGCAAAGUGGCUGUGGCUAUACUGCC [C15U G40U],0.12
10,GGCAGAGCUCAACACAGAGUGGCAAAGUGGCUGUGGAUAGACUGCC [C18A C37A],0.05
11,GGCAGAGCUCAACACAGCGCGGCAAAGUGGCUGUGGCUGGACUGCC [U20C A39G],0.06
12,GACAGAGCUCAACACACCGUGGCAAAGUGGCUGUGGCUAGACUGCC [G2A G17C],0.32
13,GGCAGAGCUCAACACAGCGUGGGAAAGUGGCUGUGGCUAGACUGCU [C23G C46U],1
14,GGCAGUGAUCAACACAGCGUGGCAAAGUGGCUGUGGCUAGACUGCC [A6U C8A],0.27
15,GGCAGAGCUCAACACAGUGUGGCAAAGUGGCUGUGGCUAGAGUGCC [C18U C42G],0.05
16,GGCAUAGCUCAACACAGCGUGGCAAAGAGGCUGUGGCUAGACUGCC [G5U U28A],0.06
17,GGCAGAGCCCAACACAGCGUGGCAAAGUGGCCGUGGCUAGACUGCC [U9C U32C],0.04
18,GGCAGAGCCCAACACAGCGUGGCAAAGUGGCAGUGGCUAGACUGCC [U9C U32A],0.02
19,CGCACAGCUCAACACAGCGUGGCAAAGUGGCUGUGGCUAGACUGCC [G1C G5C],0.02

row,Variant,self-cleavage
1,GGCAGAGCUCACCUCAGCGUGGCAAAGUGGCUGUGGCUAGACUGCC [A12C A14U],0.05
2,ACCAGAGCUCAACACAGCGUGGCAAAGUGGCUGUGGCUAGACUGCC [G1A G2C],0.24
3,GGCAGAGCUCAACCCAGCGUGGCAAAGGGGCUGUGGCUAGACUGCC [A14C U28G],0.07
4,GGCAGAGCUCAACACAGCGUGGCAAAGUGGCUGUCGCUAGACUGGC [G35C C45G],0.03
5,GGCAGAGCUCAACACAGCGUGGCAAAGUGGCUGUGUCUAGAAUGCC [G36U C42A],0.06
6,GGCAGAGCUCAACACAGCGUGGCAAAGUGGCGGUGGCUAGACAGCC [U32G U43A],0.04
7,GGCAGGGCUCAACACAGCGUGGCAAAGUGGCUGUGUCUAGACUGCC [A6G G36U],0.04
8,GGCAGAGCUCAACACAGCGUGGCAAAGUGGGUGUGGCUUGACUGCC [C31G A39U],0.06
9,GGCAGAGCUCAACACGGCGUGGCACAGUGGCUGUGGCUAGACUGCC [A16G A25C],0.06
10,GGAAGAGCUCAACACAGCGUGGCAAAGUGGCUGUGGCUAAACUGCC [C3A G40A],0.16
11,AGCAGAGCUCAACACAGCGUGGCAAAGUGGCUGUGGCUAGACGGCC [G1A U43G],0.02
12,GGCAGAGCUCAACACAGCGAGGCAAAGUGGCUGUGGCUAGGCUGCC [U20A A41G],0.36
13,GGCACAGGUCAACACAGCGUGGCAAAGUGGCUGUGGCUAGACUGCC [G5C C8G],0.07
14,UGCAGAGCUCAACACAGCGUGGCAAAGUGGCAGUGGCUAGACUGCC [G1U U32A],0.06
15,UGCAGAGCUCAACACAGCUUGGCAAAGUGGCUGUGGCUAGACUGCC [G1U G19U],0.11
16,GGCAGAGCUCAACGCAGCGUGGCAAAGUGGCUGUGGCUAGACCGCC [A14G U43C],0.06
17,GGCAGAGCUCGACACAGCGUGGCAAAGUGGCUGUGGCUAGACUGCA [A11G C46A],0.04
18,GGCAGAGCUCAACACAGCGUGGAAAAGUGGCUGUGGCUAGACUGCU [C23A C46U],1.1
19,GGCAGAGCUCAACACAGCGAGGCAAGGUGGCUGUGGCUAGACUGCC [U20A A26G],0.91

row,Variant,self-cleavage
1,GGCAGAGCUCAACAAAGCUUGGCAAAGUGGCUGUGGCUAGACUGCC [C15A G19U],0.09
2,GGCAGACCUCAACACAGCGUGGCAAAGUGGCUGUGGCAAGACUGCC [G7C U38A],0.07
3,GGCAGAGCUCAACGCAGCGUGGCAAAGUGGCUGUGGCUAGACUGCU [A14G C46U],0.26
4,GUCAGAGCUCAACACAGCGUGGCAAAGUGGCUGUGGUUAGACUGCC [G2U C37U],0.05
5,GGCAGAGCGCAACACAGCGUGGCAAUGUGGCUGUGGCUAGACUGCC [U9G A26U],0.15
6,GCCAGAGCUCAACACAGCGUGGCAAAGUGGCUGUGGCUCGACUGCC [G2C A39C],0.09
7,GGCAGAGCUCAACACAGCGUGGCAAAGUCGCUGCGGCUAGACUGCC [G29C U34C],0.1
8,GGAAGAGCUCAACUCAGCGUGGCAAAGUGGCUGUGGCUAGACUGCC [C3A A14U],0.27
9,GGCAGAGCUCAACACAGCGUGGCAAAGUCGCUGUGGCUAGCCUGCC [G29C A41C],0.04
10,GGCAGAGCUCAACACAGCGUGGCAAACCGGCUGUGGCUAGACUGCC [G27C U28C],1.12
11,GGCAGGGCUCAACACAGCGUGGCAAAGUGGCUGGGGCUAGACUGCC [A6G U34G],0.04
12,GGCAGAGCUCAACGCUGCGUGGCAAAGUGGCUGUGGCUAGACUGCC [A14G A16U],0.06
13,GGCAGAGCUCAACACAGCGUGGCAGAGUGGCUGUGGCUAGACUACC [A25G G44A],0.21
14,GGCAGAGCUCAACACGGCGUGGCAAAGUGCCUGUGGCUAGACUGCC [A16G G30C],1.19
15,GGCCGAGCUCAACACAGUGUGGCAAAGUGGCUGUGGCUAGACUGCC [A4C C18U],0.05
16,GGCAGAGCUCAACACAGCGUGGAAAAGUGGCUGUCGCUAGACUGCC [C23A G35C],0.14
17,GGCAGAGCUCAACGCACCGUGGCAAAGUGGCUGUGGCUAGACUGCC [A14G G17C],0.09
18,GGCAGAGCUCAACACAGCGUGGCAAAGUGGCUGUGGCUGAACUGCC [A39G G40A],0.05
